Stoichiometry N (dynein dimers in the complex), binding result and stoichiometry N (adaptors per dynein-dynactin complex) data for three molecules are collected here from article doi:10.1101/2022.03.17.482250 (bioRxiv, 2022).

Sequences and labels used below:
B1: Full-length mouse BICDR1 (natural protein)
chain: MSAFCLGLAGRASAPAEPDSACCMELPAGAGDAVRSPATAAALVSFPGGPGELELALEEELALLAAGERSSEPGEHPQAEPESPVEGHGPPLPPPPTQDPELLSVIRQKEKDLVLAARLGKALLERNQDMSRQYEQMHKELTDKLEHLEQEKHELRRRFENREGEWEGRVSELETDVKQLQDELERQQLHLREADREKTRAVQELSEQNQRLLDQLSRASEVERQLSMQVHALKEDFREKNSSTNQHIIRLESLQAEIKMLSDRKRELEHRLSATLEENDLLQGTVEELQDRVLILERQGHDKDLQLHQSQLELQEVRLSYRQLQGKVEELTEERSLQSSAATSTSLLSEIEQSMEAEELEQEREQLRLQLWEAYCQVRYLCSHLRGNDSADSAVSTDSSMDESSETSSAKDVPAGSLRTALNDLKRLIQSIVDGVEPTVTLLSVEMTALKEERDRLRVTSEDKEPKEQLQKAIRDRDEAIAKKNAVELELAKCKMDMMSLNSQLLDAIQQKLNLSQQLEAWQDDMHRVIDRQLMDTHLKEQSRPAAAAFPRGHGVGRGQEPSTADGKRLFSFFRKI

Holding throughout (experiment): cryo-EM structure
Series [1] concerns the target Dynactin (pig (endogenous in pig brain)) (UniProt F2Z5G5).
Series [2] concerns the molecule itself.
For series [3], the target named is B1.

Regarding “Human cytoplasmic dynein-1 (from UniProt Q14204;Q13409;O43237;Q9NP97) (complex)”, the stoichiometry N (dynein dimers in the complex) in series [1] was determined as 2.
Regarding B1, in series [2], the binding result was “binds”. Besides, the stoichiometry N (adaptors per dynein-dynactin complex) in series [1] is 2.

B2: Dynein light intermediate chain (natural protein)
chain: MAPVGVEKKLLLGPNGPAVAAAGDLTSEEEEGQSLWSSILSEVSTRARSKLPSGKNILVFGEDGSGKTTLMTKLQGAEHGKKGRGLEYLYLSVHDEDRDDHTRCNVWILDGDLYHKGLLKFAVSAESLPETLVIFVADMSRPWTVMESLQKWASVLREHIDKMKIPPEKMRELERKFVKDFQDYMEPEEGCQGSPQRRGPLTSGSDEENVALPLGDNVLTHNLGIPVLVVCTKCDAVSVLEKEHDYRDEHLDFIQSHLRRFCLQYGAALIYTSVKEEKNLDLLYKYIVHKTYGFHFTTPALVVEKDAVFIPAGWDNEKKIAILHENFTTVKPEDAYEDFIVKPPVRKLVHDKELAAEDEQVFLMKQQSLLAKQPATPTRASESPARGPSGSPRTQGRGGPASVPSSSPGTSVKKPDPNIKNNAASEGVLASFFNSLLSKKTGSPGSPGAGGVQSTAKKSGQKTVLSNVQEELDRMTRKPDSMVTNSSTENEA
Consider B2, for which the binding result in series [3] was “binds”.
